Reference: patent publication US20200024330A1

Assays:
Test in all cases: cell-based or functional assay
[1] = target: HIV-1 Env of isolate 94UG103 (pseudovirus) (HIV-1)
[2] = target: HIV-1 Env of isolate MGRM-Chronic-B-002 (HIV-1)
[3] = target: HIV-1 Env of isolate MGRM-AE-002 (pseudovirus) (HIV-1)
[4] = target: HIV-1 Env of isolate 92RW009 (clade A), on pseudovirus (HIV-1)
[5] = target: HIV-1 Env of isolate 92UG031 (pseudovirus) (HIV-1)
[6] = target: HIV-1 Env of isolate 92UG001 (subtype D), on pseudovirus (HIV-1)
[7] = target: HIV-1 Env of isolate MGRM-D-001 (subtype D), on pseudovirus (HIV-1)
[8] = target: HIV-1 Env of isolate MG RM-A-011 (pseudovirus) (HIV-1)
[9] = target: HIV-1 Env of isolate CAAN.A2 (HIV-1)
[10] = target: HIV-1 Env of isolate VLGCA1 (pseudovirus) (HIV-1)
[11] = target: HIV-1 Env of isolate 92UG046 (subtype D), on pseudovirus (HIV-1)
[12] = target: HIV-1 Env of isolate 92WR026 (pseudovirus) (HIV-1)
[13] = target: HIV-1 Env of isolate MG RM-A-009 (pseudovirus) (HIV-1)
[14] = target: HIV-1 Env of isolate MGRM-AE-006 (pseudovirus) (HIV-1)
[15] = target: HIV-1 Env of isolate MGRM-Chronic-B-003 (HIV-1)
[16] = target: HIV-1 Env of isolate 92WR020 (pseudovirus) (HIV-1)
[17] = target: HIV-1 Env of isolate MGRM-Chronic-B-004 (HIV-1)
[18] = target: HIV-1 Env of isolate 92RW008 (clade A), on pseudovirus (HIV-1)
[19] = target: HIV-1 Env of isolate 98CN009 (subtype CRF07_BC), on pseudovirus (HIV-1)
[20] = target: HIV-1 Env of isolate MG RM-A-005 (pseudovirus) (HIV-1)
[21] = target: HIV-1 Env of isolate APV_17 (HIV-1)
[22] = target: HIV-1 Env of isolate MGRM-D-004 (subtype D), on pseudovirus (HIV-1)
[23] = target: HIV-1 Env of isolate MGRM-D-008 (subtype D), on pseudovirus (HIV-1)
[24] = target: HIV-1 92RW020 envelope glycoprotein (Env) on pseudovirus (HIV-1)
[25] = target: HIV-1 Env of isolate MGRM-AE-001 (pseudovirus) (HIV-1)
[26] = target: HIV-1 Env of isolate 92UG037 (pseudovirus) (HIV-1)
[27] = target: HIV-1 Env of isolate 92UG005 (subtype D), on pseudovirus (HIV-1)
[28] = target: HIV-1 Env of isolate 92UG024 (subtype D), on pseudovirus (HIV-1)
[29] = target: HIV-1 Env of isolate MGRM-AE-004 (pseudovirus) (HIV-1)
[30] = target: HIV-1 Env of isolate MG RM-A-014 (pseudovirus) (HIV-1)
[31] = target: HIV-1 Env of isolate JRFL (HIV-1)
[32] = target: HIV-1 Env of isolate MG RM-A-013 (pseudovirus) (HIV-1)
[33] = target: HIV-1 Env of isolate MG RM-A-006 (pseudovirus) (HIV-1)
[34] = target: HIV-1 Env of isolate MG RM-A-012 (pseudovirus) (HIV-1)
[35] = target: HIV-1 92BR020 envelope glycoprotein (Env) on pseudovirus (HIV-1)
[36] = target: HIV-1 Env of isolate 93UG077 (pseudovirus) (HIV-1)
[37] = target: HIV-1 Env of isolate 98CN006 (subtype CRF08 BC), on pseudovirus (HIV-1)
[38] = target: HIV-1 Env of isolate MGRM-D-002 (subtype D), on pseudovirus (HIV-1)
[39] = target: HIV-1 Env of isolate MG RM-A-007 (pseudovirus) (HIV-1)
[40] = target: HIV-1 Env of isolate 94 KE 105 (pseudovirus) (HIV-1)
[41] = target: HIV-1 Env of isolate MGRM-AE-005 (pseudovirus) (HIV-1)
[42] = target: HIV-1 Env of isolate MGRM-AE-003 (pseudovirus) (HIV-1)
[43] = target: HIV-1 Env of isolate MG RM-A-010 (pseudovirus) (HIV-1)
[44] = target: HIV-1 Env of isolate MGRM-D-003 (subtype D), on pseudovirus (HIV-1)
[45] = target: HIV-1 Env of isolate MGRM-D-005 (subtype D), on pseudovirus (HIV-1)
[46] = target: HIV-1 Env of isolate CMU02 (pseudovirus) (HIV-1)
[47] = target: HIV-1 Env of isolate 92TH021 (pseudovirus) (HIV-1)
[48] = target: HIV-1 Env of isolate 6535.3 (HIV-1)
[49] = target: HIV-1 Env of isolate 93WR029 (pseudovirus) (HIV-1)
[50] = target: HIV-1 Env of isolate APV_13 (HIV-1)
[51] = target: HIV-1 Env of isolate MG RM-A-008 (pseudovirus) (HIV-1)
[52] = target: HIV-1 Env of isolate 92WR021 (pseudovirus) (HIV-1)
[53] = target: HIV-1 Env of isolate 92UG114 (subtype D), on pseudovirus (HIV-1)
[54] = target: HIV-1 Env of isolate 92WR024 (pseudovirus) (HIV-1)
[55] = target: HIV-1 Env of isolate MGRM-Chronic-B-008 (HIV-1)
[56] = target: HIV-1 Env of isolate 92BR020 (HIV-1)
[57] = target: HIV-1 Env of isolate MGRM-Chronic-B-001 (HIV-1)
[58] = target: HIV-1 Env of isolate 93TH305 (HIV-1)
[59] = target: HIV-1 Env of isolate APV_6 (HIV-1)

Chain of 4980_N08 (PGT-143) (antibody) (VH): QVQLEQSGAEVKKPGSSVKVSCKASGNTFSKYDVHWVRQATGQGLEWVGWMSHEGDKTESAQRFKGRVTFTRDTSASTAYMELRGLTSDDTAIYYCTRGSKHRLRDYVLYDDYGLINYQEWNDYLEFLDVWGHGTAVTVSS
Chain of 4980_N08 (PGT-143) (antibody) (VL): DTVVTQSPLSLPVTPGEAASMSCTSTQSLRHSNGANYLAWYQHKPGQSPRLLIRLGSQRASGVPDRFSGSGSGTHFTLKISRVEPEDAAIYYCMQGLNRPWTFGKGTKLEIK

Question: Which IC50 (µg/mL), pseudovirus neutralization [1] does the source give for 4980_N08 (PGT-143) (antibody) here?
Answer: > 50 µg/mL

Question: And the IC50 [2]?
Answer: > 50 µg/mL

Question: And the IC50 (µg/mL), pseudovirus neutralization [3]?
Answer: > 50 µg/mL

Question: And the IC50, single-round pseudovirus neutralization [4]?
Answer: 0.01 µg/mL

Question: And the IC50 (µg/mL), pseudovirus neutralization [5]?
Answer: 0.095 µg/mL

Question: What about the IC50, pseudovirus neutralization [6] of the same substance?
Answer: > 50 µg/mL

Question: What about the IC50, pseudovirus neutralization [7] of the same substance?
Answer: > 50 µg/mL

Question: And the IC50 (µg/mL), pseudovirus neutralization [8]?
Answer: > 50 µg/mL

Question: What about the IC50 [9] of the same substance?
Answer: > 50 µg/mL

Question: What about the IC50 (µg/mL), pseudovirus neutralization [10] of the same substance?
Answer: 17.4 µg/mL

Question: What about the IC50, pseudovirus neutralization [11] of the same substance?
Answer: > 50 µg/mL

Question: What about the IC50 (µg/mL), pseudovirus neutralization [12] of the same substance?
Answer: 5.36 µg/mL

Question: And the IC50 (µg/mL), pseudovirus neutralization [13]?
Answer: 0.05 µg/mL

Question: What about the IC50 (µg/mL), pseudovirus neutralization [14] of the same substance?
Answer: > 50 µg/mL

Question: What about the IC50 [15] of the same substance?
Answer: 0.854 µg/mL

Question: What about the IC50 (µg/mL), pseudovirus neutralization [16] of the same substance?
Answer: > 50 µg/mL

Question: What about the IC50 [17] of the same substance?
Answer: 0.395 µg/mL

Question: And the IC50, single-round pseudovirus neutralization [18]?
Answer: 0.385 µg/mL

Question: And the IC50, pseudovirus neutralization [19]?
Answer: 10.2 µg/mL

Question: And the IC50 (µg/mL), pseudovirus neutralization [20]?
Answer: 7.48 µg/mL

Question: What about the IC50 [21] of the same substance?
Answer: 1.11 µg/mL

Question: And the IC50, pseudovirus neutralization [22]?
Answer: > 50 µg/mL

Question: What about the IC50, pseudovirus neutralization [23] of the same substance?
Answer: 0.153 µg/mL

Question: What about the IC50 (ug/ml), neutralizing activity [24] of the same substance?
Answer: > 10 µg/mL

Question: What about the IC50 (µg/mL), pseudovirus neutralization [25] of the same substance?
Answer: > 50 µg/mL

Question: And the IC50 (µg/mL), pseudovirus neutralization [26]?
Answer: 0.854 µg/mL

Question: What about the IC50, pseudovirus neutralization [27] of the same substance?
Answer: > 50 µg/mL

Question: And the IC50, pseudovirus neutralization [28]?
Answer: > 50 µg/mL

Question: What about the IC50 (µg/mL), pseudovirus neutralization [29] of the same substance?
Answer: 0.002 µg/mL

Question: What about the IC50 (µg/mL), pseudovirus neutralization [30] of the same substance?
Answer: 1.07 µg/mL

Question: What about the IC50 [31] of the same substance?
Answer: > 50 µg/mL

Question: What about the IC50 (µg/mL), pseudovirus neutralization [32] of the same substance?
Answer: 9.24 µg/mL

Question: And the IC50 (µg/mL), pseudovirus neutralization [33]?
Answer: > 50 µg/mL

Question: And the IC50 (µg/mL), pseudovirus neutralization [34]?
Answer: > 50 µg/mL

Question: What about the IC50 (ug/ml), neutralizing activity [35] of the same substance?
Answer: > 10 µg/mL

Question: What about the IC50 (µg/mL), pseudovirus neutralization [36] of the same substance?
Answer: > 50 µg/mL

Question: What about the IC50, pseudovirus neutralization [37] of the same substance?
Answer: > 50 µg/mL

Question: What about the IC50, pseudovirus neutralization [38] of the same substance?
Answer: > 50 µg/mL

Question: What about the IC50 (µg/mL), pseudovirus neutralization [39] of the same substance?
Answer: > 50 µg/mL

Question: And the IC50 (µg/mL), pseudovirus neutralization [40]?
Answer: 0.368 µg/mL

Question: And the IC50 (µg/mL), pseudovirus neutralization [41]?
Answer: > 50 µg/mL

Question: What about the IC50 (µg/mL), pseudovirus neutralization [42] of the same substance?
Answer: > 50 µg/mL

Question: What about the IC50 (µg/mL), pseudovirus neutralization [43] of the same substance?
Answer: 0.019 µg/mL

Question: And the IC50, pseudovirus neutralization [44]?
Answer: > 50 µg/mL

Question: And the IC50, pseudovirus neutralization [45]?
Answer: 1.41 µg/mL

Question: What about the IC50 (µg/mL), pseudovirus neutralization [46] of the same substance?
Answer: > 50 µg/mL

Question: What about the IC50 (µg/mL), pseudovirus neutralization [47] of the same substance?
Answer: 0.003 µg/mL

Question: And the IC50 [48]?
Answer: > 50 µg/mL

Question: What about the IC50 (µg/mL), pseudovirus neutralization [49] of the same substance?
Answer: 0.053 µg/mL

Question: What about the IC50 [50] of the same substance?
Answer: > 50 µg/mL

Question: And the IC50 (µg/mL), pseudovirus neutralization [51]?
Answer: > 50 µg/mL

Question: And the IC50 (µg/mL), pseudovirus neutralization [52]?
Answer: > 50 µg/mL

Question: And the IC50, pseudovirus neutralization [53]?
Answer: > 50 µg/mL

Question: And the IC50 (µg/mL), pseudovirus neutralization [54]?
Answer: 0.122 µg/mL

Question: And the IC50 [55]?
Answer: > 50 µg/mL

Question: And the IC50 [56]?
Answer: 25.9 µg/mL

Question: And the IC50 [57]?
Answer: > 50 µg/mL

Question: What about the IC50 [58] of the same substance?
Answer: 17.3 µg/mL

Question: And the IC50 [59]?
Answer: 14 µg/mL
